“Also recorded” adds a separate entry of the source. Where no end group is shown, it is not given here.
Columns and labels:
[1] = molecular target: T1, UFC1 (Homo sapiens, UniProt Q9Y3C8); assay: ITC, UBA5 constructs vs UFC1; format: binding; settings: for Kd / ΔG / −T*ΔS / ΔS / KA*10^−6 / ΔH: ITC, 25 °C; for Kd / ΔH: VP-ITC, peptide ~400 µM titrated into 20–25 µM UFC1, 25 mM HEPES pH 7.5, 100 mM NaCl, single ITC profile; for Kd / ΔS / ΔH: one-site model; for N: ITC stoichiometry; for N / ΔG / −T*ΔS / ΔS / KA*10^−6: peptide vs UFC1; for N / KA*10^−6 / ΔH: ± = fitting error; for ΔS: single profile; for KA*10^−6: value is KA × 10^−6
T1 construct: Full length UFC1, residues 1–167; modified ubiquitin tag (Ub19) with TEV site (N, cleaved yes); made in house; host or cells: E. coli T7 Express
T1 sequence (Q9Y3C8 1-167): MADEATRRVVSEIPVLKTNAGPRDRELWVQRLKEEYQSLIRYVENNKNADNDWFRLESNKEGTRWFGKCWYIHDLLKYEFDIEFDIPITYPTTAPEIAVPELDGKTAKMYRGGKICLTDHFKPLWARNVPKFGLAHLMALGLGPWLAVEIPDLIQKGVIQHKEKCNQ
Excerpt: (§1) To understand how the UBA5 C-terminus participates in the ufmylation cascade, we performed isothermal titration calorimetry (ITC) experiments, in which we titrated UBA5 C-terminal peptides (see Table 1) to the UBA5 AD, UFC1, UFM1 and representative LC3/GABARAP proteins (Figure 2A, Supplementary Figure S2A–D and Table 2).
To investigate if conjugation of UFM1 to the UBA5 catalytic cysteine (C250) affects the UFC1:UBA5 interactions, we prepared full length UBA5 C250K mutant and stably conjugated UFM1 to it as reported before for a number of ubiquitin-specific E2 enzymes. We compared the UFC1 spectra after addition of a twofold molar excess of FL^1–404 and FL^1–404 C250K~UFM1 constructs (Supplementary Figure S5C).
(§2) All proteins and peptides were expressed in E.Coli T7 Express (New England Biolabs GmbH, Frankfurt, Germany) cells in LB or M9 (to obtain ^15N- and ^13C,^15N-labeled polypeptides) media according to the protocol described in [33, 36]. For protein purification, bacterial cell pellets were resuspended in lysis buffer (50 mM Tris-HCl pH = 7.5, 100 mM NaCl, 5% glycerol, 5 mM PIC (protease inhibitor cocktail)) and lysed via sonication (TT13 Sonotrode, 40% amplitude, for 6 × 1 min with a 0.5/0.5-s pulse). Lysates were centrifuged for 45 min at 17,000× g at 4 °C. Supernatants were loaded onto a His Trap Fast Flow 5 mL column (GE Healthcare, München, Germany) equilibrated in loading buffer (50 mM Tris-HCl pH = 8.0, 250 mM NaCl, 1% glycerol, 20 mM imidazole). The column was washed with loading buffer for 5–10 CV and protein was eluted with elution buffer (50 mM Tris-HCl pH = 8, 250 mM NaCl, 1% glycerol, 400 mM imidazole). Simultaneous TEV cleavage (1 mg TEV protease was added to 100 mg peptides/proteins) and buffer exchange to loading buffer via dialysis was performed over night at 4 °C. After reverse IMAC, proteins were concentrated with conical concentrators (Millipore Merck, Darmstadt, Germany) and loaded on a Superdex 10/60 75 or 200 column (GE Healthcare, München, Germany) for further purification and equilibration with ITC/NMR buffer (25 mM HEPES pH = 7.5, 100 mM NaCl). For structural NMR spectroscopy, buffer containing 50 mM Tris-HCl pH = 7.5, 100 mM NaCl was used. Prior to NMR experiments, TCEP and protease inhibitors cocktail were added to the samples to final concentrations 1 and 5 mM, respectively. Purified peptides and protein were concentrated and stored at −80 °C. The protein and peptide concentrations were calculated from the UV absorption at 280 nm by Nanodrop spectrophotometer (Thermo Scientific, Langenselbold, Germany).
(§3) All ITC experiments were performed at 25 °C using a VP-ITC microcalorimeter (Malvern Panalytical Ltd., Malvern, UK). Peptides in concentration of ~400 µM were titrated into 20–25 µM solutions of corresponding binding partner at a stirring speed of 307 rpm. The raw data were corrected on the dilution heat of peptides obtained in independent experiment (titration of the peptide in syringe into the ITC/NMR buffer in the measuring cell). Pre-titration delay was set to 180 s, interval between titration steps was experimentally adjusted to avoid kinetic contribution to the observed heat effects and set to 200 s. A single ITC profile was collected for each type of interaction. The ITC data were analyzed based on a “one-site” binding model with MicroCal ITC software implemented in Origin 7.0.

[2] = molecular target: T1, UFC1; assay: In vitro thioester formation (ufmylation) assay, UFC1~UFM1 conjugate; format: biochemical; settings: for effect on UFC1~UFM1 conjugation (in words): 1 mM ATP, 22 °C, peptides added to UBA5 AD^1–330 where applicable; for UFC1~UFM1 conjugate fraction (in words): ATP reduced to 25 µM, compared to wild type peptide
Method: First, we analyzed the effect of the UBA5 C-terminus on UFM1 transfer to UFC1 with an in vitro thioester formation assay (Figure 1B–E).
Ufmylation reaction assays were adopted from work of Xie. Briefly, 70 µM UFM1, 20 µM UFC1 and 20 µM of different UBA5 constructs were mixed in reaction buffer (50 mM HEPES pH = 7.5, 100 mM NaCl, 5 mM MgCl2). After starting the reaction with addition of 1 mM ATP, the reaction mix was incubated at 22 °C for the desired time. To quench the reaction and prepare electrophoretic samples, 1 µL of the reaction mix was added to 99 µL 1x non-reducing SDS loading buffer and frozen in liquid nitrogen. Sample content was visualized by sodium dodecyl sulfate polyacrylamide gel electrophoresis (SDS-PAGE). The transfer to polyvinylidene difluoride (PVDF) membrane was performed via a Trans-Blot® Turbo™ Transfer System (Bio-Rad, München, Germany). After transfer the membrane was blocked with TBST (Tris-buffered saline with Tween20 buffer, 20 mM Tris, 150 mM NaCl and 0.1% TWEEN 20) containing 5% w/v nonfat dry milk for 1 h, followed by α-UFC1 antibody incubation over night at 4 °C (ab189251 abcam, 1:10,000 in TBST containing 5% w/v nonfat dry milk). After washing with TBST the membrane was incubated with secondary antibody (anti-rabbit-HRP) for 1 h at RT and again washed with TBST. Detection was performed by addition of ECL solution. For quantification of UFC1 ufmylation coloc2 software implemented in ImageJ was used.

[3] = molecular target: T2, GABARAPL2 (Homo sapiens, UniProt P60520); assay: ITC, UBA5 peptides vs GABARAPL2; format: binding; settings: for affinity increase to GABARAPL2 vs wild type peptide / ΔG / ΔS / −T*ΔS / KA*10^−6: 25 °C; for ΔG / ΔS / −T*ΔS: vs GABARAPL2; for KA*10^−6: vs GABARAPL2, value is KA × 10^−6, ± = fitting error; for affinity change, GABARAPL2: A371 mutants of R1-R2-R3^325–404
T2 construct: modified ubiquitin tag (Ub19) with TEV site (N, cleaved yes); made in house; host or cells: E. coli T7 Express
Excerpt: as §1, §2, §3

[4] = molecular target: T3, UFM1 (Homo sapiens, UniProt P61960); assay: ITC, UBA5 peptides vs UFM1; format: binding; settings: 25 °C; for ΔG / −T*ΔS: vs UFM1; for ΔS: vs UFM1, one-site model, single profile; for KA*10^−6: vs UFM1, value is KA × 10^−6, ± = fitting error
T3 construct: Full length UFM1, residues 2–83; modified ubiquitin tag (Ub19) with TEV site (N, cleaved yes); made in house; host or cells: E. coli T7 Express
Excerpt: as §1, §2, §3

[5] = molecular target: T4, LC3B (Homo sapiens, UniProt Q9GZQ8); assay: ITC, UBA5 peptides vs LC3B; format: binding; settings: for affinity increase to LC3B vs wild type peptide / ΔG / ΔS / −T*ΔS / KA*10^−6: 25 °C; for ΔG / ΔS / −T*ΔS / KA*10^−6: vs LC3B; for KA*10^−6: value is KA × 10^−6, ± = fitting error; for affinity change, LC3B: A371 mutants of R1-R2-R3^325–404
T4 construct: LC3B, residues 5–120; ubiquitin tag Ub3 (vector pETm60_Ub3) (cleaved yes); made in house; host or cells: E. coli T7 Express
Excerpt: as §1, §2, §3

[6] = molecular target: T1, UFC1; assay: NMR titration with UFC1; format: binding; settings: [15N,1H] TROSY-HSQC, 25 °C
Method: To understand the role of the UBA5 C-terminal region in coordination of the binding events reported above on the molecular level, we performed NMR titration experiments. […] It seems, that these UBA5 residues form additional interactions with UFC1.
All NMR experiments were performed at a sample temperature of 25 °C on Bruker 600, 700, 800, 900, and 950 MHz spectrometers equipped with cryogenic probes, and a 500 MHz spectrometer equipped with a room-temperature triple-resonance probe. All NMR spectra were analyzed with the Sparky 3.114 software (University of California, San Francisco, USA). For NMR titration experiments, the non-labeled UBA5 peptides were titrated to 100 µM ^13C,^15N-labeled UFC1 to a final molar ratio of 1:8 (UFC1:UBA5 peptide). Conversely, 100 µM ^13C,^15N-labeled UBA5 peptides were titrated with non-labeled UFC1 to a final molar ratio 1:4 (UBA5 peptide:UFC1). 2D ^1H-^15N correlation spectra ([^15N,^1H] TROSY-HSQC) were recorded at each titration point. The same types of spectra were recorded to estimate binding of ^13C,^15N-labeled UFC1 (75 µM) to non-labeled UBA5, UBA5~UFM1 and UFM1 at 1:2 molar ratios. CSP values, Δδ, were calculated for each individual amide group using the formula Δδ = [(ΔδN/5)^2 + Δδ^2HN)]^1/2.

T2 sequence (P60520 3-116): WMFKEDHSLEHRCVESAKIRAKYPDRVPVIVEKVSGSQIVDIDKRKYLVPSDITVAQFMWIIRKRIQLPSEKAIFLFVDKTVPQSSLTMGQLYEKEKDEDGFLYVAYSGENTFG
T3 sequence (P61960 2-83): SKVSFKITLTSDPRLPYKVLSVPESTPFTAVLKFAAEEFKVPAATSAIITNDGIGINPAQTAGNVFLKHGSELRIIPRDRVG

GAMEDSGESLEDLMAKMKNM [R3^388–404]
Kd [1]: 10000 nM

GABARAPL2: GABARAPL2, residues 3–116
effect of GABARAPL2 on UFC1~UFM1 conjugation ([2]; high concentration of GABARAPL2 added to ufmylation assay): could efficiently prohibit the UFC1~UFM1 conjugation

R1-R2-R3^325–404 A371E: UBA5 C-terminal part with A371E mutant (res. 325–404)
N [1]: 1.03 ± 0.005 | ΔG [1]: -7.88 kcal/mol | −T*ΔS [1]: -0.11 kcal/mol | ΔS [1]: 0.36 cal mol^−1 K^−1 | KA*10^−6 [1]: 0.60 ± 0.02 M^−1 | Kd [1]: 1600 nM | ΔH [1]: -7.78 ± 0.05 kcal/mol | affinity increase to GABARAPL2 vs wild type peptide [3]: ~ 3 fold | ΔG [3]: -9.95 kcal/mol | ΔS [3]: 7.23 cal mol^−1 K^−1 | −T*ΔS [3]: -2.16 kcal/mol | KA*10^−6 [3]: 19.60 ± 2.57 M^−1 | affinity change, GABARAPL2 [3]: some increase in affinity | ΔG [4]: -6.86 kcal/mol | −T*ΔS [4]: 4.56 kcal/mol | ΔS [4]: −15.3 cal mol^−1 K^−1 | KA*10^−6 [4]: 0.11 ± 0.01 M^−1 | affinity increase to LC3B vs wild type peptide [5]: ~ 7 fold | ΔG [5]: -8.49 kcal/mol | ΔS [5]: 15.3 cal mol^−1 K^−1 | −T*ΔS [5]: -4.56 kcal/mol | KA*10^−6 [5]: 1.66 ± 0.12 M^−1 | affinity change, LC3B [5]: some increase in affinity | effect on UFC1~UFM1 conjugation (in words) [2]: nearly the same trans-thioesterification efficiency compared to wild type | effect on UFC1~UFM1 conjugation (in words) ([2]; listed as A371E): did not affect significantly the formation of the UFC1~UFM1 conjugate | UFC1~UFM1 conjugate fraction (in words) [2]: reduction of the UFC1~UFM1 conjugate fraction

R1-R2-R3^325–404 A371T: UBA5 C-terminal part with A371T mutant (res. 325–404)
N [1]: 1.03 ± 0.008 | ΔG [1]: -7.82 kcal/mol | −T*ΔS [1]: 0.06 kcal/mol | ΔS [1]: −0.19 cal mol^−1 K^−1 | KA*10^−6 [1]: 0.54 ± 0.03 M^−1 | Kd [1]: 1800 nM | ΔH [1]: -7.88 ± 0.08 kcal/mol | affinity increase to GABARAPL2 vs wild type peptide [3]: ~ 3 fold | ΔG [3]: -9.89 kcal/mol | ΔS [3]: 7.76 cal mol^−1 K^−1 | −T*ΔS [3]: -2.31 kcal/mol | KA*10^−6 [3]: 17.90 ± 3.75 M^−1 | affinity change, GABARAPL2 [3]: some increase in affinity | ΔG [4]: -7.02 kcal/mol | −T*ΔS [4]: 3.96 kcal/mol | ΔS [4]: −13.3 cal mol^−1 K^−1 | KA*10^−6 [4]: 0.14 ± 0.01 M^−1 | affinity increase to LC3B vs wild type peptide [5]: ~ 3 fold | ΔG [5]: -8.02 kcal/mol | ΔS [5]: 14.3 cal mol^−1 K^−1 | −T*ΔS [5]: -4.26 kcal/mol | KA*10^−6 [5]: 0.76 ± 0.04 M^−1 | affinity change, LC3B [5]: some increase in affinity | effect on UFC1~UFM1 conjugation (in words) [2]: nearly the same trans-thioesterification efficiency compared to wild type | effect on UFC1~UFM1 conjugation (in words) ([2]; listed as A371T): did not affect significantly the formation of the UFC1~UFM1 conjugate | UFC1~UFM1 conjugate fraction (in words) [2]: reduction of the UFC1~UFM1 conjugate fraction

H-GAMGPVPDLPEGITVAYTIPK-OH [R2^359–376]
interaction / affinity to UFC1 (in words) ([1]; ITC and NMR titration, listed as R2): no direct interactions; also recorded: does not interact with UFC1 | effect on UFC1~UFM1 conjugation (in words) [2]: virtually no effect

ΔR3^1–380: UBA5 with deleted R3 region, residues 1–380
interaction with UFC1 (in words) [6]: did not interact with UFC1 | UFM1 transfer to UFC1, ΔR3^1–380 vs FL^1–404 (in words) ([2]; reactions started with 25 µM ATP): significantly slowed down UFM1 transfer to UFC1

GAMGPVPDLPEGITVAYTIPKKQEDSVTELTVEDSGESLEDLMAKMKNM [R2-R3^359–404]
Kd [1]: 2700 nM

Reference: paper PMC8304084, “A Concerted Action of UBA5 C-Terminal Unstructured Regions Is Important for Transfer of Activated UFM1 to UFC1” (International Journal of Molecular Sciences, 2021)
